The results in this text go back to US20240117385A1, “ENZYMES OF LUCIFERIN BIOSYNTHESIS AND USE THEREOF” (LIGHT BIO, INC., priority 2018, published 2024).

B1: SEQ ID NO: 129: plant type III polyketide synthase (PKS) (protein, listed as Polygonum cuspidatum)
chain: MAPAVADIRKAQRAEGPATVLAIGTATPPNCVYQKDYPDYYFRVTNSDHMTDLKEKFRRMCEKSNIEKRYMYLTEEILKENPNMCSYMQTSSLDTRQDMVVSEVPRLGKEAAQKAIKEWGQPKSKITHVIMCTTSGVDMPGADYQLTKLLGLHPSVKRFMMYQQGCFAGGTVLRLAKDLAENNRGARVLVVCSEITAICFRGPTDTHPDSMVGQALFGDGSGAVIIGADPDLSIEKPIFELVWTAQTILPDSEGAIDGHLREVGLTFHLLKDVPGLISKNIEKNLTEAFSPLNVSDWNSLFWIAHPGGPAILDQVETKLGLKEEKLKATRQVLNDYGNMSSACVLFIMDEMRKKSVENGHATTGEGLEWGVLFGFGPGLTVETVVLHSVPVAN
B2: SEQ ID NO: 121: type III polyketide synthase PKS2 from Aquilaria sinensis (protein, listed as Aquilaria sinensis)
chain: MSQAIADNAYRHHLKRAPTPGKATVLALGKAFPKQVIPQENLVEGYIRDTKCEDVSIKEKLERLCKTTTVKTRYTVMSKEILDNYPELVTEGSPTIRQRLEIANPAVVEMAKEASLACIKQWGRPAGDITHIVYVSSSEIRLPGGDLYLANELGLKNDINRIMLYFLGCYGGVTGLRVAKDIAENNPGSRILLTTSETTILGFRPPNKSRPYDLVGAALFGDGAAAVIIGANPEIGRESPFMELNFALQQFLPGTHGVIDGRLSEEGINFKLGRDLPQKIEDNIEDFCRKLMIKADGDLKEFNELFWAVHPGGPAILNRLESILDLKNGKLECSRRALMDYGNVSSNTIFYVMEYMREELKREGSEEWGLALAFGPGITFEGILLRSL
B3: SEQ ID NO: 131: plant type III polyketide synthase (PKS) (protein)
chain: MATEEMKKLATVMAIGTANPPNCYYQADFPDFYFRVTNSDHLINLKQKFKRLCENSRIEKRYLHVTEEILKENPNIAAYEATSLNVRHKMQVKGVAELGKEAALKAIKEWGQPKSKITHLIVCCSAGVDMPGADYQLTKLLDLDPSVKRFMFYHLGCYAGGTVLRLAKDIAENNKGARVLIVCSEMTTTCFRGPSETHLDSMIGQAILGDGAAAVIVGADPDLTVERPIFELVSTAQTIVPESHGAIEGHLLESGLSFHLYKTVPTLISNNIKTCLSDAFTPLNISDWNSLFWIAHPGGPAILDQVTAKVGLEKEKLKVTRQVLKDYGNMSSATVFFIMDEMRKKSLENGQATTGEGLEWGVLFGFGPGITVETVVLRSVPVIS
modifications: Amino acid sequence of the mutant L132S PKS from Rheum palmatum, optimized for expression in Nicotiana benthamiana
B4: SEQ ID NO: 125: type III polyketide synthase from Hydrangea macrophylla (protein, listed as Hydrangea macrophylla)
chain: MATKSVAVEEMCKAQKAGGPATILAIGTAVPSNCYYQSEYPDFYFRVTKSDHLTDLKSKFKRMCERSSIKKRYMHLTEEILEENPNMCTFAAPSIDGRQDIVVKEIPKLAKEAASKAIKEWGQPKSNITHLVFCTTSGVDMPGCDYQLTRLLGLRPSIKRLMMYQQGCHAGGTGLRLAKDLAENNKGARVLVVCSEMTVINFRGPSEAHMDSLVGQSLFGDGASAVIVGSDPDLSTEHPLYQIMSASQIIVADSEGAIDGHLRQEGLTFHLRKDVPSLVSDNIENTLVEAFTPILMDSIDSIIDWNSIFWIAHPGGPAILNQVQAKVGLKEEKLRVSRHILSEYGNMSSACVFFIMDEMRKRSMEEGKGTTGEGLEWGVLFGFGPGFTVETIVLHSVPI
B5: SEQ ID NO: 133: plant type III polyketide synthase (PKS) (protein, listed as Rheum tataricum)
chain: MAPEESRHAETAVNRAATVLAIGTANPPNCYYQADFPDFYFRATNSDHLTHLKQKFKRICEKSMIEKRYLHLTEEILKENPNIASFEAPSLDVRHNIQVKEVVLLGKEAALKAINEWGQPKSKITRLIVCCIAGVDMPGADYQLTKLLGLQLSVKRFMFYHLGCYAGGTVLRLAKDIAENNKEARVLIVRSEMTPICFRGPSETHIDSMVGQAIFGDGAAAVIVGANPDLSIERPIFELISTSQTIIPESDGAIEGHLLEVGLSFQLYQTVPSLISNCIETCLSKAFTPLNISDWNSLFWIAHPGGRAILDDIEATVGLKKEKLKATRQVLNDYGNMSSACVFFIMDEMRKKSLANGQVTTGEGLKWGVLFGFGPGVTVETVVLSSVPLIT
B6: SEQ ID NO: 123: type III polyketide synthase from Arabidopsis thaliana (protein, listed as Arabidopsis thaliana)
chain: MSNSRMNGVEKLSSKSTRRVANAGKATLLALGKAFPSQVVPQENLVEGFLRDTKCDDAFIKEKLEHLCKTTTVKTRYTVLTREILAKYPELTTEGSPTIKQRLEIANEAVVEMALEASLGCIKEWGRPVEDITHIVYVSSSEIRLPGGDLYLSAKLGLRNDVNRVMLYFLGCYGGVTGLRVAKDIAENNPGSRVLLTTSETTILGFRPPNKARPYDLVGAALFGDGAAAVIIGADPRECEAPFMELHYAVQQFLPGTQNVIEGRLTEEGINFKLGRDLPQKIEENIEEFCKKLMGKAGDESMEFNDMFWAVHPGGPAILNRLETKLKLEKEKLESSRRALVDYGNVSSNTILYVMEYMRDELKKKGDAAQEWGLGLAFGPGITFEGLLIRSLTSS
B7: SEQ ID NO: 139: plant type III polyketide synthase (PKS) (protein, listed as Piper methysticum)
chain: MSKMVEEHWAAQRARGPATVLAIGTANPPNVLYQADYPDFYFRVTKSEHMTQLKEKFKRICDKSAIRKRHLHLTEELLEKNPNICAHMAPSLDARQDIAVVEVPKLAKEAATKAIKEWGRPKSDITHLIFCTTCGVDMPGADYQLTTLLGLRPTVRRTMLYQQGCFAGGTVLRHAKDFAENNRGARVLAVCSEFTVMNFSGPSEAHLDSMVGMALFGDGASAVIVGADPDFAIERPLFQLVSTTQTIVPDSDGAIKCHLKEVGLTLHLVKNVPDLISNNMDKILEEAFAPLGIRDWNSIFWTAHPGGAAILDQLEAKLGLNKEKLKTTRTVLREYGNMSSACVCFVLDEMRRSSLEEGKTTSGEGLEWGILLGFGPGLTVETVVLRSVPISTAN
B8: SEQ ID NO: 119: type III polyketide synthase PKS1 from Aquilaria sinensis (protein, listed as Aquilaria sinensis)
chain: MGSQDVAGGALKGVNPGKATILALGKAFPYQLVMQEFLVDGYFKNTSCKDQELKQKLARLCKTTTVKTRYVVMSEEILNKYPELAVEGIPTLKQRLDIGNEALTEMAIEASQACIKKWGRPASEITHLVYVSSSEARLPGGDLYLAQGLGLSPRTKRVVLYFMGCSGGVAGLRVAKDIAENNPGSRVLLATSETTIVGFKPPSAHRPYDLVGVALFGDGAGAMVIGSDPLPGTESPLFELHTAIQNFLPNTEKTIDGRLTEEGISFKLARELPQIVEDHIEGFCGQLTGVIGLSHKQYNKMFWAVHPGGPAILNRVEKRLDLHPNKLDASRRALEDYGNASSNSIVYVLDYMIEETLKMKTESLEPSEWGLILAFGPGVTFEGILARNLAV
B9: SEQ ID NO: 137: plant type III polyketide synthase (PKS) (protein, listed as Piper methysticum)
chain: MSKTVEDRAAQRAKGPATVLAIGTATPANVVYQTDYPDYYFRVTKSEHMTKLKNKFQRMCDRSTIKKRYMVLTEELLEKNLSLCTYMEPSLDARQDILVPEVPKLGKEAADEAIAEWGRPKSEITHLIFCTTCGVDMPGADYQLTKLLGLRSSVRRTMLYQQGCFGGGTVLRLAKDLAENNAGARVLVVCSEITTAVNFRGPSDTHLDLLVGLALFGDGAAAVIVGADPDPTLERPLFQIVSGAQTILPDSEGAINGHLREVGLTIRLLKDVPGLVSMNIEKCLMEAFAPMGIHDWNSIFWIAHPGGPTILDQVEAKLGLKEEKLKSTRAVLREYGNMSSACVLFILDEVRKRSMEEGKTTTGEGFDWGVLFGFGPGFTVETVVLHSMPIPKADEGR
B10: SEQ ID NO: 127: plant type III polyketide synthase (PKS) (protein, listed as Physcomitrella patens)
chain: B9 chain

The data set relates to Pichia pastoris GS115 yeast cells expressing luciferase, hispidin hydroxylase and coumarate-CoA ligase 1. Put plainly: Screening of PKS for hispidin-synthase activity in yeast colonies sprayed with caffeic acid. It is filed as cell-based. To be noted: colonies sprayed with caffeic acid solution. From the text:
The selected nucleotide sequences for expression in Pichia pastoris yeast cells and Nicotiana benthamiana plant cells were optimized. The resulting nucleic acids were obtained synthetically and cloned into pGAPZ vector and used for verifying ability of the expressed proteins to synthesize hispidin.
For this purpose, in genome of Pichia pastoris GS115 yeast line, constitutively expressing Neonothopanus nambi luciferase and hispidin hydroxylase, obtained according to Example 1, there was additionally introduced pGAPZ plasmid, comprising gene of
Arabidopsis thaliana coumarate-CoA ligase 1 (which nucleotide and amino acid sequence are shown in SEQ ID NOs: 140, 141), also obtained by oligonucleotide synthesis. The plasmid was linearized at restriction site AvrII and used for transformation into Pichia pastoris GS115 cells.
The obtained yeast cells, constitutively expressing Neonothopanus nambi luciferase and hispidin hydroxylase and Arabidopsis thaliana coumarate-CoA ligase 1, were […] by plasmids comprising coding PKS sequences, and dispersed in Petri dishes with RDB medium, comprising 1 M of sorbitol, 2% (weight/volume) of glucose, 1.34% (weight/volume) of yeast nitrogen base (YNB), 0.005% (weight/volume) of amino acids mixture, 0.00004% (weight/volume) of biotin and 2% (weight/volume) of agar. To identify enzymes having hispidin-synthase activity, the obtained colonies were sprayed with caffeic acid solution, detecting hispidin-synthase presence in cells by occurrence of luminescence. Luminescence emitted by colonies was detected by means of IVIS Spectrum CT (Perkin Elmer, USA). Yeast line constitutively expressing luciferase, hispidin hydroxylase and coumarate-CoA ligase 1, and also wild yeast cells were used as negative control. […] Amino acid sequences coded by then are shown in SEQ ID NOs: 119, 121, 123, 125, 127, 129, 131, 133, 135, 137, 139 respectively.
For B1, the hispidin-synthase activity entry is on record as “had hispidin-synthase activity”.
B2: the hispidin-synthase activity result is listed as “had hispidin-synthase activity” and the “hispidin-synthase activity, comparison among PKS” value is “highest activity”.
In the case of B3, the hispidin-synthase activity result was “had hispidin-synthase activity”.
For the molecule B4, the hispidin-synthase activity entry is recorded as “had hispidin-synthase activity” and the “hispidin-synthase activity, comparison among PKS” value is given as “highest activity”.
As for B5, the hispidin-synthase activity result is “had hispidin-synthase activity”.
On to B6, for which the hispidin-synthase activity entry is “had hispidin-synthase activity” and the “hispidin-synthase activity, comparison among PKS” value is “highest activity”.
As to B7, the hispidin-synthase activity result was “had hispidin-synthase activity”.
As for B8, the hispidin-synthase activity entry is on record as “had hispidin-synthase activity” and the “hispidin-synthase activity, comparison among PKS” value is “highest activity”.
For the molecule B9, the hispidin-synthase activity entry is recorded as “had hispidin-synthase activity”.
Same read-out and setting: as for B10, the entry is “had hispidin-synthase activity”.
